The results in this text go back to US20160115500A1 (University of California, published 2016).

The labels stand for the following.
T1: GAL4 activation domain fusion (ACT) to HAB1 (UniProt Q9CAJ0 23-511, limits assumed)
T1 construct: pACT-HAB1 fusion in yeast reporter strains; also called pACT-HAB1
T1 sequence (looked up): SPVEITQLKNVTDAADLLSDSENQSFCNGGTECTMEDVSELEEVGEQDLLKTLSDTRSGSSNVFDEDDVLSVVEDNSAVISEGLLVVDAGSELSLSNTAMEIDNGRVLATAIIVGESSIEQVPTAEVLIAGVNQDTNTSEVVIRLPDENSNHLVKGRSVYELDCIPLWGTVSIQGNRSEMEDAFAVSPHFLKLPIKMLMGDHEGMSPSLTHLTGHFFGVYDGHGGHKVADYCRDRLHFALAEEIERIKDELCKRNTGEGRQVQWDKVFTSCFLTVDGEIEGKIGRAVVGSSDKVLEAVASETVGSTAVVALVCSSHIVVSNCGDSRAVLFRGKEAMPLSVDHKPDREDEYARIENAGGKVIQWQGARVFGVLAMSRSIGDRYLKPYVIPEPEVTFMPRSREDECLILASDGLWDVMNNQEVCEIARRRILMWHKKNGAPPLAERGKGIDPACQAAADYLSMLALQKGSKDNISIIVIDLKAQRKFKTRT

B1: PYR1^Y58H,K59R,V83L,F108A,S122G (receptor, not shown: small tags and cut ends)
chain: MPSELTPEERSELKNSIAEFHTYQLDPGSCSSLHAQRIHAPPELVWSIVRRFDKPQTHRHFIKSCSVEQNFEMRVGCTRDVILISGLPANTSTERLDILDDERRVTGASIIGGEHRLTNYKGVTTVHRFEKENRIWTVVLESYVVDMPEGNSEDDTRMFADTVVKLNLQKLATVAEAMARNSGDGSGSQVT
notes: pBD-PYR1 fusion in yeast
B2: PYR1^K59R,F108V (receptor, not shown: small tags and cut ends)
chain: MPSELTPEERSELKNSIAEFHTYQLDPGSCSSLHAQRIHAPPELVWSIVRRFDKPQTYRHFIKSCSVEQNFEMRVGCTRDVIVISGLPANTSTERLDILDDERRVTGVSIIGGEHRLTNYKSVTTVHRFEKENRIWTVVLESYVVDMPEGNSEDDTRMFADTVVKLNLQKLATVAEAMARNSGDGSGSQVT
notes: pBD-PYR1 fusion in yeast
B3: PYR1^Y58H,K59R,V81I,F108A,S122G,F159L (receptor, not shown: small tags and cut ends)
chain: MPSELTPEERSELKNSIAEFHTYQLDPGSCSSLHAQRIHAPPELVWSIVRRFDKPQTHRHFIKSCSVEQNFEMRVGCTRDIIVISGLPANTSTERLDILDDERRVTGASIIGGEHRLTNYKGVTTVHRFEKENRIWTVVLESYVVDMPEGNSEDDTRMLADTVVKLNLQKLATVAEAMARNSGDGSGSQVT
notes: pBD-PYR1 fusion in yeast; also called PYR1^MANDI; pBD-PYR1^MANDI
B4: PYR1^K59R,F108T (receptor, not shown: small tags and cut ends)
chain: MPSELTPEERSELKNSIAEFHTYQLDPGSCSSLHAQRIHAPPELVWSIVRRFDKPQTYRHFIKSCSVEQNFEMRVGCTRDVIVISGLPANTSTERLDILDDERRVTGTSIIGGEHRLTNYKSVTTVHRFEKENRIWTVVLESYVVDMPEGNSEDDTRMFADTVVKLNLQKLATVAEAMARNSGDGSGSQVT
notes: pBD-PYR1 fusion in yeast
B5: PYR1^Y58H,K59R,V81I,F108A,S122G,V164I (receptor, not shown: small tags and cut ends)
chain: MPSELTPEERSELKNSIAEFHTYQLDPGSCSSLHAQRIHAPPELVWSIVRRFDKPQTHRHFIKSCSVEQNFEMRVGCTRDIIVISGLPANTSTERLDILDDERRVTGASIIGGEHRLTNYKGVTTVHRFEKENRIWTVVLESYVVDMPEGNSEDDTRMFADTVIKLNLQKLATVAEAMARNSGDGSGSQVT
notes: pBD-PYR1 fusion in yeast
B6: PYR1^K59R,F108Q (receptor, not shown: small tags and cut ends)
chain: MPSELTPEERSELKNSIAEFHTYQLDPGSCSSLHAQRIHAPPELVWSIVRRFDKPQTYRHFIKSCSVEQNFEMRVGCTRDVIVISGLPANTSTERLDILDDERRVTGQSIIGGEHRLTNYKSVTTVHRFEKENRIWTVVLESYVVDMPEGNSEDDTRMFADTVVKLNLQKLATVAEAMARNSGDGSGSQVT
notes: pBD-PYR1 fusion in yeast
B7: PYR1^K59R,F108Q,S122G (receptor, not shown: small tags and cut ends)
chain: MPSELTPEERSELKNSIAEFHTYQLDPGSCSSLHAQRIHAPPELVWSIVRRFDKPQTYRHFIKSCSVEQNFEMRVGCTRDVIVISGLPANTSTERLDILDDERRVTGQSIIGGEHRLTNYKGVTTVHRFEKENRIWTVVLESYVVDMPEGNSEDDTRMFADTVVKLNLQKLATVAEAMARNSGDGSGSQVT
notes: pBD-PYR1 fusion in yeast
B8: PYR1^K59R,F108E (receptor, not shown: small tags and cut ends)
chain: MPSELTPEERSELKNSIAEFHTYQLDPGSCSSLHAQRIHAPPELVWSIVRRFDKPQTYRHFIKSCSVEQNFEMRVGCTRDVIVISGLPANTSTERLDILDDERRVTGESIIGGEHRLTNYKSVTTVHRFEKENRIWTVVLESYVVDMPEGNSEDDTRMFADTVVKLNLQKLATVAEAMARNSGDGSGSQVT
notes: pBD-PYR1 fusion in yeast
B9: PYR1^Y58H,K59R,F108A,S122G (receptor)
chain: MPSELTPEERSELKNSIAEFHTYQLDPGSCSSLHAQRIHAPPELVWSIVRRFDKPQTHRHFIKSCSVEQNFEMRVGCTRDVIVISGLPANTSTERLDILDDERRVTGASIIGGEHRLTNYKGVTTVHRFEKENRIWTVVLESYVVDMPEGNSEDDTRMFADTVVKLNLQKLATVAEAMARNSGDGSGSQVT
notes: pBD-PYR1 fusion in yeast
B10: PYR1^K59R,F108S (receptor)
chain: MPSELTPEERSELKNSIAEFHTYQLDPGSCSSLHAQRIHAPPELVWSIVRRFDKPQTYRHFIKSCSVEQNFEMRVGCTRDVIVISGLPANTSTERLDILDDERRVTGSSIIGGEHRLTNYKSVTTVHRFEKENRIWTVVLESYVVDMPEGNSEDDTRMFADTVVKLNLQKLATVAEAMARNSGDGSGSQVT
notes: pBD-PYR1 fusion in yeast
B11: PYR1^K59R,S122G (receptor, not shown: small tags and cut ends)
chain: MPSELTPEERSELKNSIAEFHTYQLDPGSCSSLHAQRIHAPPELVWSIVRRFDKPQTYRHFIKSCSVEQNFEMRVGCTRDVIVISGLPANTSTERLDILDDERRVTGFSIIGGEHRLTNYKGVTTVHRFEKENRIWTVVLESYVVDMPEGNSEDDTRMFADTVVKLNLQKLATVAEAMARNSGDGSGSQVT
notes: pBD-PYR1 fusion in yeast
B12: PYR1^K59R,F108I,S122G (receptor, not shown: small tags and cut ends)
chain: MPSELTPEERSELKNSIAEFHTYQLDPGSCSSLHAQRIHAPPELVWSIVRRFDKPQTYRHFIKSCSVEQNFEMRVGCTRDVIVISGLPANTSTERLDILDDERRVTGISIIGGEHRLTNYKGVTTVHRFEKENRIWTVVLESYVVDMPEGNSEDDTRMFADTVVKLNLQKLATVAEAMARNSGDGSGSQVT
notes: pBD-PYR1 fusion in yeast
B13: PYR1^K59R,F108N (receptor, not shown: small tags and cut ends)
chain: MPSELTPEERSELKNSIAEFHTYQLDPGSCSSLHAQRIHAPPELVWSIVRRFDKPQTYRHFIKSCSVEQNFEMRVGCTRDVIVISGLPANTSTERLDILDDERRVTGNSIIGGEHRLTNYKSVTTVHRFEKENRIWTVVLESYVVDMPEGNSEDDTRMFADTVVKLNLQKLATVAEAMARNSGDGSGSQVT
notes: pBD-PYR1 fusion in yeast
B14: PYR1^Y58H,K59R,V81I,F108A,S122G (receptor)
chain: MPSELTPEERSELKNSIAEFHTYQLDPGSCSSLHAQRIHAPPELVWSIVRRFDKPQTHRHFIKSCSVEQNFEMRVGCTRDIIVISGLPANTSTERLDILDDERRVTGASIIGGEHRLTNYKGVTTVHRFEKENRIWTVVLESYVVDMPEGNSEDDTRMFADTVVKLNLQKLATVAEAMARNSGDGSGSQVT
notes: pBD-PYR1 fusion in yeast
B15: PYR1^K59R,V81I,F108A,S122G,A160V (receptor)
chain: MPSELTPEERSELKNSIAEFHTYQLDPGSCSSLHAQRIHAPPELVWSIVRRFDKPQTYRHFIKSCSVEQNFEMRVGCTRDIIVISGLPANTSTERLDILDDERRVTGASIIGGEHRLTNYKGVTTVHRFEKENRIWTVVLESYVVDMPEGNSEDDTRMFVDTVVKLNLQKLATVAEAMARNSGDGSGSQVT
notes: pBD-PYR1 fusion in yeast
B16: PYR1^K59R,E94A (receptor, not shown: small tags and cut ends)
chain: MPSELTPEERSELKNSIAEFHTYQLDPGSCSSLHAQRIHAPPELVWSIVRRFDKPQTYRHFIKSCSVEQNFEMRVGCTRDVIVISGLPANTSTARLDILDDERRVTGFSIIGGEHRLTNYKSVTTVHRFEKENRIWTVVLESYVVDMPEGNSEDDTRMFADTVVKLNLQKLATVAEAMARNSGDGSGSQVT
notes: pBD-PYR1 fusion in yeast
B17: PYR1^K59R,E94A,Y120A (receptor, not shown: small tags and cut ends)
chain: MPSELTPEERSELKNSIAEFHTYQLDPGSCSSLHAQRIHAPPELVWSIVRRFDKPQTYRHFIKSCSVEQNFEMRVGCTRDVIVISGLPANTSTARLDILDDERRVTGFSIIGGEHRLTNAKSVTTVHRFEKENRIWTVVLESYVVDMPEGNSEDDTRMFADTVVKLNLQKLATVAEAMARNSGDGSGSQVT
notes: pBD-PYR1 fusion in yeast
B18: PYR1^K59R,N167V (receptor, not shown: small tags and cut ends)
chain: MPSELTPEERSELKNSIAEFHTYQLDPGSCSSLHAQRIHAPPELVWSIVRRFDKPQTYRHFIKSCSVEQNFEMRVGCTRDVIVISGLPANTSTERLDILDDERRVTGFSIIGGEHRLTNYKSVTTVHRFEKENRIWTVVLESYVVDMPEGNSEDDTRMFADTVVKLVLQKLATVAEAMARNSGDGSGSQVT
notes: pBD-PYR1 fusion in yeast
B19: PYR1^K59R,E94S (receptor, not shown: small tags and cut ends)
chain: MPSELTPEERSELKNSIAEFHTYQLDPGSCSSLHAQRIHAPPELVWSIVRRFDKPQTYRHFIKSCSVEQNFEMRVGCTRDVIVISGLPANTSTSRLDILDDERRVTGFSIIGGEHRLTNYKSVTTVHRFEKENRIWTVVLESYVVDMPEGNSEDDTRMFADTVVKLNLQKLATVAEAMARNSGDGSGSQVT
notes: pBD-PYR1 fusion in yeast
B20: PYR1^K59R,N167H (receptor, not shown: small tags and cut ends)
chain: MPSELTPEERSELKNSIAEFHTYQLDPGSCSSLHAQRIHAPPELVWSIVRRFDKPQTYRHFIKSCSVEQNFEMRVGCTRDVIVISGLPANTSTERLDILDDERRVTGFSIIGGEHRLTNYKSVTTVHRFEKENRIWTVVLESYVVDMPEGNSEDDTRMFADTVVKLHLQKLATVAEAMARNSGDGSGSQVT
notes: pBD-PYR1 fusion in yeast
B21: PYR1^K59R,E94A,N167C (receptor, not shown: small tags and cut ends)
chain: MPSELTPEERSELKNSIAEFHTYQLDPGSCSSLHAQRIHAPPELVWSIVRRFDKPQTYRHFIKSCSVEQNFEMRVGCTRDVIVISGLPANTSTARLDILDDERRVTGFSIIGGEHRLTNYKSVTTVHRFEKENRIWTVVLESYVVDMPEGNSEDDTRMFADTVVKLCLQKLATVAEAMARNSGDGSGSQVT
notes: pBD-PYR1 fusion in yeast

One assay deals with T1, GAL4 activation domain fusion (ACT) to …. As to the kind of experiment: yeast two-hybrid, X-gal; lowest mandipropamid concentration giving signal.
The molecule B1 yielded a Threshold of 0.01 µM. B2: the Threshold is 100 µM. In turn, B3 displayed a Threshold of 0.002 µM.

B4 came in with a Threshold of 100 µM. The molecule B5 gave a Threshold of 0.01 µM. The molecule B6 displayed a Threshold of 100 µM. In turn, B7 came in with a Threshold of 10 µM. In turn, B8 came in with a Threshold of 100 µM.

Take B9: the Threshold is 0.25 µM. With B10, the Threshold came out at 100 µM. With B11, the Threshold was 100 µM.

B12 came in with a Threshold of 10 µM. B13: the Threshold is 100 µM.

For B14, the Threshold came to 0.05 µM.

Take B15: the Threshold stood at 0.05 µM.

The target is the same in another assay. As to the kind of experiment: yeast two-hybrid, X-gal; lowest fludioxonil concentration giving signal.
With B16, the Threshold stood at 1 µM. For B17, the Threshold amounted to 10 µM. B18 had a Threshold of 100 µM. On to B19, for which the Threshold came out at 100 µM. On to B20, for which the Threshold worked out at 100 µM. In the case of B21, the Threshold was determined as 10 µM.

Another assay shares this target. As to the kind of experiment: yeast two-hybrid, X-gal; lowest dichlobenil concentration giving signal.
Turning to B8, the Threshold was 100 µM.
